Results published in patent publication US20260042849.

Tests used:
[1] = test system: internally quenched peptide probe with CM 7054 (PKGL, SEQ ID NO: 108)
[2] = test system: internally quenched peptide probe with CM RSPWGL (SEQ ID NO: 182)
[3] = test system: internally quenched peptide probe with CM 7041 (PWGL, SEQ ID NO: 100)
[4] = test system: internally quenched peptide probe with CM 7049 (PFGL, SEQ ID NO: 104)
[5] = test system: internally quenched peptide probe with CM 7052 (PLGL, SEQ ID NO: 107)
[6] = test system: internally quenched peptide probe with CM PMGLK (SEQ ID NO: 64)
[7] = test system: internally quenched peptide probe with CM PWGLRS (SEQ ID NO: 181)
[8] = test system: internally quenched peptide probe with CM 7051 (PMGL, SEQ ID NO: 106)
[9] = test system: internally quenched peptide probe with CM 7055 (PHGL, SEQ ID NO: 10)
[10] = test system: internally quenched peptide probe with CM 7047 (PYGL, SEQ ID NO: 103)
[11] = test system: internally quenched peptide probe with CM 7050 (PRGL, SEQ ID NO: 105)
[12] = test system: internally quenched peptide probe with CM 7053 (PQGL, SEQ ID NO: 9)
[13] = test system: internally quenched peptide probe with CM PMGLKS (SEQ ID NO: 5)
[14] = test system: internally quenched peptide probe with CM APMGLKH (SEQ ID NO: 7)
[15] = test system: internally quenched peptide probe with CM 7056 (PEGL, SEQ ID NO: 11)

Chain of human recombinant MMP9 (R&D Systems, catalog No: 911-MP) (chain, as listed by the source): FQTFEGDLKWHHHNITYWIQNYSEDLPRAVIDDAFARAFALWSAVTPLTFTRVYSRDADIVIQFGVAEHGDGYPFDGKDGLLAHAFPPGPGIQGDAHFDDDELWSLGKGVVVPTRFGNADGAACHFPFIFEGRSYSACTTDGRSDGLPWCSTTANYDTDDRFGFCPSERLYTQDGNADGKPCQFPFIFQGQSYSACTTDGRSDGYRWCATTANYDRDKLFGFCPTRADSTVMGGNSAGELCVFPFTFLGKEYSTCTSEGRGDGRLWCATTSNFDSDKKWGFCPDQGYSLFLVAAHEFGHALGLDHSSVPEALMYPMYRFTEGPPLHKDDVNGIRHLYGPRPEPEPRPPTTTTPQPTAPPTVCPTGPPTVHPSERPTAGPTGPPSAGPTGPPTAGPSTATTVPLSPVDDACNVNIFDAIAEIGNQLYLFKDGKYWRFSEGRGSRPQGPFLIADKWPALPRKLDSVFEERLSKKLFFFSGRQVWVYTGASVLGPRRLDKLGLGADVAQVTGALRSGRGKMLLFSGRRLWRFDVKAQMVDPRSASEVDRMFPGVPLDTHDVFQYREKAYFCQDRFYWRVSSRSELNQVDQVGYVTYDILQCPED

human recombinant MMP9 (R&D Systems, catalog No: 911-MP)
stated: cleaved (kcat/Km, M-1s-1, bar on a log axis) [1]: PKGL, MMP9 bar ends just above the 1x10^4 tick
Probe Cleavage (kcat/KM) [2]: 870000 M⁻¹ s⁻¹
Probe Cleavage (pM/s) [2]: 25500 pM/s
stated: cleaved (kcat/Km, M-1s-1, bar on a log axis) [3]: PWGL, MMP9 bar ends just above the 1x10^4 tick
kcat/KM (M^-1 s^-1) [4]: greater than 5×10^2 M^-1 s^-1
stated: cleaved (kcat/Km, M-1s-1, bar on a log axis) [4]: PFGL, MMP9 bar ends at about the 1x10^4 tick
stated: cleaved (kcat/Km, M-1s-1, bar on a log axis) [5]: PLGL, MMP9 bar ends between 1x10^4 and 1x10^5
Probe Cleavage (kcat/KM) [6]: 140000 M⁻¹ s⁻¹
Probe Cleavage (pM/s) [6]: 6080 pM/s
Probe Cleavage (kcat/KM) [7]: 150000 M⁻¹ s⁻¹
Probe Cleavage (pM/s) [7]: 3830 pM/s
stated: cleaved (kcat/Km, M-1s-1, bar on a log axis) [8]: PMGL, MMP9 bar ends between 1x10^3 and 1x10^4, close under 1x10^4
stated: cleaved (kcat/Km, M-1s-1, bar on a log axis) [9]: PHGL, MMP9 bar ends between 1x10^3 and 1x10^4
kcat/KM (M^-1 s^-1) [10]: greater than 5×10^2 M^-1 s^-1
stated: cleaved (kcat/Km, M-1s-1, bar on a log axis) [10]: PYGL, MMP9 bar ends at about the 1x10^4 tick
stated: cleaved (kcat/Km, M-1s-1, bar on a log axis) [11]: PRGL, MMP9 bar ends between 1x10^4 and 1x10^5
stated: cleaved (kcat/Km, M-1s-1, bar on a log axis) [12]: PQGL, MMP9 bar ends between 1x10^3 and 1x10^4
Probe Cleavage (kcat/KM) [13]: 3.1e+06 M⁻¹ s⁻¹
Probe Cleavage (pM/s) [13]: 133000 pM/s
Probe Cleavage (kcat/KM) [14]: 2.8e+06 M⁻¹ s⁻¹
Probe Cleavage (pM/s) [14]: 115000 pM/s
kcat/KM (M^-1 s^-1) [15]: greater than 5×10^2 M^-1 s^-1
stated: cleaved (kcat/Km, M-1s-1, bar on a log axis) [15]: PEGL, MMP9 bar ends between 1x10^2 and 1x10^3, just under the 1x10^3 tick
